What is called Ki is a dissociation constant, usually derived from enzyme kinetics or from competition with a known ligand. Higher therefore signals weaker binding.

For the assay, the target named is human MC4 receptor (human), P32245. Nature of the assay: competition. Particulars: modification not given.
human MC4 receptor (human), P32245, sequence (P32245 whole entry): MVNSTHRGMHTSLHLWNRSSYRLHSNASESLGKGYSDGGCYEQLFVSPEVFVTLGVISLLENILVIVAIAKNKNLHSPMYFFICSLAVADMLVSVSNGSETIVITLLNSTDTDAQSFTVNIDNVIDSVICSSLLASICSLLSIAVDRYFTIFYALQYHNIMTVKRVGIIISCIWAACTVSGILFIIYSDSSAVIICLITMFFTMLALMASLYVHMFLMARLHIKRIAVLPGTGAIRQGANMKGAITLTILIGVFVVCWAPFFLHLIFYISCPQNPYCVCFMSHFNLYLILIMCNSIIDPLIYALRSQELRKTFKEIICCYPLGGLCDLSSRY

As to YRCEHFRWC [Compound 77], the Ki came out at 410 pM. That is a sub-nanomolar value.

Source of the values: patent US20070105759.
